Results published in publication PMC6025699, “Acetylation Regulates Thioredoxin Reductase Oligomerization and Activity” (Antioxidants & Redox Signaling, 2018).
Where “and” joins values, the source holds several entries; their conditions need not be identical. Equal values may be shown once.

Tests used:
[1] = biological target: the molecule itself; assay: cell-based or functional assay
[2] = biological target: the molecule itself; assay: SEC; native size exclusion chromatography, Superdex 200 Increase 10/300 GL, 20 mM sodium phosphate, 150 mM sodium chloride, pH 7.5; 0.5 mL fractions read by anti-His Western blot (densitometry) and DTNB activity; self-association: monomers, dimers, tetramers

| Protein | 9,10-phenanthrequinone assay, relative activity (x-fold, WT TrxR1 = 1), 100 nM TrxR1 [1] | DTNB assay, relative activity (x-fold, WT TrxR1 = 1), 50 nM TrxR1 [1] | insulin linked Trx1 assay, relative activity (x-fold, WT TrxR1 = 1), 200 nM TrxR1 [1] | stoichiometry N [2] |
| --- | --- | --- | --- | --- |
| acetylated thioredoxin reductase 1, Nɛ-acetyl-lysine at K141 (acTrxR1^K141) (enzyme, human, UniProt Q16881-4 1-551, looked up, Nɛ-acetyl-lysine at 141; selenocysteine (Sec) at 550, Same construct as m1 but for the acetyl-lysine at 141; source: E. coli BL21 DE3 or E. coli ΔRF1 (C321.ΔA.exp) with acKRS/tRNA^Pyl, purified (Ni-NTA, size-exclusion chromatography)) MSCEDGRALEGTLSELAAETDLPVVFVKQRKIGGHGPTLKAYQEGRLQKLLKMNGPEDLPKSYDYDLIIIGGGSGGLAAAKEAAQYGKKVMVLDFVTPTPLGTRWGLGGTCVNVGCIPKKLMHQAALLGQALQDSRNYGWKVEETVKHDWDRMIEAVQNHIGSLNWGYRVALREKKVVYENAYGQFIGPHRIKATNNKGKEKIYSAERFLIATGERPRYLGIPGDKEYCISSDDLFSLPYCPGKTLVVGASYVALECAGFLAGIGLDVTVMVRSILLRGFDQDMANKIGEHMEEHGIKFIRQFVPIKVEQIEAGTPGRLRVVAQSTNSEEIIEGEYNTVMLAIGRDACTRKIGLETVGVKINEKTGKIPVTDEEQTNVPYIYAIGDILEDKVELTPVAIQAGRLLAQRLYAGSTVKCDYENVPTTVFTPLEYGACGLSEEKAVEKFGEENIEVYHSYFWPLEWTIPSRDNNKCYAKIICNTKDNERVVGFHVLGPNAGEVTQGFAAALKCGLTKKQLDSTIGIHPVCAEVFTTLSVTKRSGASILQAGCUG | 1.2 x-fold | 1.8 x-fold | 1.8 x-fold | 2 and 4 |
| acetylated thioredoxin reductase 1, Nɛ-acetyl-lysine at K200 (acTrxR1^K200) (enzyme, human, UniProt Q16881-4 1-551, looked up, Nɛ-acetyl-lysine at 200; selenocysteine (Sec) at 550, Same construct as m1 but for the acetyl-lysine at 200; source: E. coli BL21 DE3 or E. coli ΔRF1 (C321.ΔA.exp) with acKRS/tRNA^Pyl, purified (Ni-NTA, size-exclusion chromatography)) MSCEDGRALEGTLSELAAETDLPVVFVKQRKIGGHGPTLKAYQEGRLQKLLKMNGPEDLPKSYDYDLIIIGGGSGGLAAAKEAAQYGKKVMVLDFVTPTPLGTRWGLGGTCVNVGCIPKKLMHQAALLGQALQDSRNYGWKVEETVKHDWDRMIEAVQNHIGSLNWGYRVALREKKVVYENAYGQFIGPHRIKATNNKGKEKIYSAERFLIATGERPRYLGIPGDKEYCISSDDLFSLPYCPGKTLVVGASYVALECAGFLAGIGLDVTVMVRSILLRGFDQDMANKIGEHMEEHGIKFIRQFVPIKVEQIEAGTPGRLRVVAQSTNSEEIIEGEYNTVMLAIGRDACTRKIGLETVGVKINEKTGKIPVTDEEQTNVPYIYAIGDILEDKVELTPVAIQAGRLLAQRLYAGSTVKCDYENVPTTVFTPLEYGACGLSEEKAVEKFGEENIEVYHSYFWPLEWTIPSRDNNKCYAKIICNTKDNERVVGFHVLGPNAGEVTQGFAAALKCGLTKKQLDSTIGIHPVCAEVFTTLSVTKRSGASILQAGCUG | 1.4 x-fold | 2.1 x-fold | 1.9 x-fold | 2 and 4 |
| acetylated thioredoxin reductase 1, Nɛ-acetyl-lysine at K307 (acTrxR1^K307) (enzyme, human, UniProt Q16881-4 1-551, looked up, Nɛ-acetyl-lysine at 307; selenocysteine (Sec) at 550, Same construct as m1 but for the acetyl-lysine at 307; source: E. coli BL21 DE3 or E. coli ΔRF1 (C321.ΔA.exp) with acKRS/tRNA^Pyl, purified (Ni-NTA, size-exclusion chromatography)) MSCEDGRALEGTLSELAAETDLPVVFVKQRKIGGHGPTLKAYQEGRLQKLLKMNGPEDLPKSYDYDLIIIGGGSGGLAAAKEAAQYGKKVMVLDFVTPTPLGTRWGLGGTCVNVGCIPKKLMHQAALLGQALQDSRNYGWKVEETVKHDWDRMIEAVQNHIGSLNWGYRVALREKKVVYENAYGQFIGPHRIKATNNKGKEKIYSAERFLIATGERPRYLGIPGDKEYCISSDDLFSLPYCPGKTLVVGASYVALECAGFLAGIGLDVTVMVRSILLRGFDQDMANKIGEHMEEHGIKFIRQFVPIKVEQIEAGTPGRLRVVAQSTNSEEIIEGEYNTVMLAIGRDACTRKIGLETVGVKINEKTGKIPVTDEEQTNVPYIYAIGDILEDKVELTPVAIQAGRLLAQRLYAGSTVKCDYENVPTTVFTPLEYGACGLSEEKAVEKFGEENIEVYHSYFWPLEWTIPSRDNNKCYAKIICNTKDNERVVGFHVLGPNAGEVTQGFAAALKCGLTKKQLDSTIGIHPVCAEVFTTLSVTKRSGASILQAGCUG | 1.3 x-fold | 2.7 x-fold | 2 x-fold | 2 and 4 |
| wild-type thioredoxin reductase 1 (human TrxR1, isoform 4, Sec550) (enzyme, UniProt Q16881-4 1-551, looked up, selenocysteine (Sec) at 550, amplified with a forward primer at the ATG (NdeI) and a reverse primer behind the fdhF SecIS in the 3' UTR; In solution a mixture of monomers, dimers, tetramers and covalently linked dimers; also called WT TrxR1; His6-TrxR1; source: E. coli BL21 DE3 or E. coli ΔRF1 (C321.ΔA.exp), purified (Ni-NTA, size-exclusion chromatography)) MSCEDGRALEGTLSELAAETDLPVVFVKQRKIGGHGPTLKAYQEGRLQKLLKMNGPEDLPKSYDYDLIIIGGGSGGLAAAKEAAQYGKKVMVLDFVTPTPLGTRWGLGGTCVNVGCIPKKLMHQAALLGQALQDSRNYGWKVEETVKHDWDRMIEAVQNHIGSLNWGYRVALREKKVVYENAYGQFIGPHRIKATNNKGKEKIYSAERFLIATGERPRYLGIPGDKEYCISSDDLFSLPYCPGKTLVVGASYVALECAGFLAGIGLDVTVMVRSILLRGFDQDMANKIGEHMEEHGIKFIRQFVPIKVEQIEAGTPGRLRVVAQSTNSEEIIEGEYNTVMLAIGRDACTRKIGLETVGVKINEKTGKIPVTDEEQTNVPYIYAIGDILEDKVELTPVAIQAGRLLAQRLYAGSTVKCDYENVPTTVFTPLEYGACGLSEEKAVEKFGEENIEVYHSYFWPLEWTIPSRDNNKCYAKIICNTKDNERVVGFHVLGPNAGEVTQGFAAALKCGLTKKQLDSTIGIHPVCAEVFTTLSVTKRSGASILQAGCUG | – | – | – | 2 and 4 |
